Data set [1] has as its target T1, Pyruvate kinase (PK) (Ruminiclostridium cellulolyticum, UniProt B8I6Q5).
T1 construct: gene Ccel_2569; full-length, C-terminal His tag (pET28a), E. coli BL21(DE3), Ni-NTA and anion exchange
T1 sequence (B8I6Q5 1-580): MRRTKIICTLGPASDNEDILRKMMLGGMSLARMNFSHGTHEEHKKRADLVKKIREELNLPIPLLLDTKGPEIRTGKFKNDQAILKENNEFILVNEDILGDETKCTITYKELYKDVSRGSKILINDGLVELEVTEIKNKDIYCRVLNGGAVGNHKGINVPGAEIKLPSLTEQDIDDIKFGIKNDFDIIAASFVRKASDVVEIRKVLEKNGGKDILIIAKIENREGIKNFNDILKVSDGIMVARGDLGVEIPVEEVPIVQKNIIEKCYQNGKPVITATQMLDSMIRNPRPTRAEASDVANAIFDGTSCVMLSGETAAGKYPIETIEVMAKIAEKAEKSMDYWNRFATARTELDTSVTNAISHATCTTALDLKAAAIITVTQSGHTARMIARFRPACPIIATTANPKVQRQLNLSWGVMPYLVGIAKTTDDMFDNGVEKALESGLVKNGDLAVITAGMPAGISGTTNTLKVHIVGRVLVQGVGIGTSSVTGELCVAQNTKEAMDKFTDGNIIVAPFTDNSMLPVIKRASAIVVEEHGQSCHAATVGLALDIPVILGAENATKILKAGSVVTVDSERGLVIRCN
Kind of data set: activation of PK, HPLC-RI of pyruvate. Type of data set: biochemical. The settings on record: allosteric activator only with GDP as co-substrate; FBP 0.5, 3, 10 mM; 20 mM MgCl2, 30 mM KCl, pH 7.0, 37 °C.

Substrate in data set [2]: Nc1ncnc2c1ncn2[C@@H]1O[C@H](COP(=O)(O)OP(=O)(O)OP(=O)(O)O)[C@@H](O)[C@H]1O
As to the kind of experiment: HPLC-RI, glucose consumption. The conditions noted are these: glucose 5 mM, 20 mM MgCl2, 25 mM HEPES pH 7.0, 37 °C. The data set is classed as biochemical, Escherichia coli.

Substrate in data set [3]: Nc1nc2c(ncn2[C@@H]2O[C@H](COP(=O)(O)OP(=O)(O)OP(=O)(O)O)[C@@H](O)[C@H]2O)c(=O)[nH]1
Kind of data set: HPLC-RI of products. The conditions noted are these: xylulose 2.5 mM, 20 mM MgCl2, 25 mM HEPES pH 7.0, 37 °C. The data set is classed as biochemical, Ruminiclostridium cellulolyticum. An excerpt:
(§1) HPLC-RI of products on Xylulokinase (XK)

Substrate in data set [4]: Nc1ncnc2c1ncn2[C@@H]1O[C@H](COP(=O)(O)OP(=O)(O)OP(=O)(O)O)[C@@H](O)[C@H]1O
As to the kind of experiment: HPLC-RI of products. The settings on record: xylulose 2.5 mM, 20 mM MgCl2, 25 mM HEPES pH 7.0, 37 °C. Type of data set: biochemical, Ruminiclostridium cellulolyticum.
From the text: as §1

Substrate in data set [5]: O=C(CO)[C@@H](O)[C@H](O)CO
As to the kind of experiment: HPLC-RI of products. The data set is classed as biochemical, Ruminiclostridium cellulolyticum. The conditions noted are these: GTP 10 mM, 20 mM MgCl2, 25 mM HEPES pH 7.0, 37 °C.
From the text: as §1

Substrate in data set [6]: Nc1nc2c(ncn2[C@@H]2O[C@H](COP(=O)(O)OP(=O)(O)O)[C@@H](O)[C@H]2O)c(=O)[nH]1
As to the kind of experiment: purified protein. Type of data set: biochemical, Ruminiclostridium cellulolyticum. The settings on record: forward, 3 mM glyceraldehyde-3-P, 1.1 mM NAD+, 10 mM MgCl2, 50 mM phosphate pH 7.0, 15 mM cysteine, 37 °C, 1,3-BPG concentration unknown, Hill fit, nH 1.63.

Substrate in data set [7]: Nc1ncnc2c1ncn2[C@@H]1O[C@H](COP(=O)(O)OP(=O)(O)O)[C@@H](O)[C@H]1O
As to the kind of experiment: purified protein. Type of data set: biochemical, Ruminiclostridium cellulolyticum. The settings on record: forward, 3 mM glyceraldehyde-3-P, 1.1 mM NAD+, 10 mM MgCl2, 50 mM phosphate pH 7.0, 15 mM cysteine, 37 °C, 1,3-BPG concentration unknown, Hill fit, nH 4.03.

Substrate in data set [8]: Nc1nc2c(ncn2[C@@H]2O[C@H](COP(=O)(O)OP(=O)(O)OP(=O)(O)O)[C@@H](O)[C@H]2O)c(=O)[nH]1
Kind of data set: GAPDH-coupled NADH oxidation. Type of data set: biochemical, Ruminiclostridium cellulolyticum. The conditions noted are these: reverse, 3-PG 25 mM, 0.3 mM NADH, 10 mM MgCl2, 50 mM phosphate pH 7.0, 15 mM cysteine, 37 °C.

Substrate in data set [9]: Nc1ncnc2c1ncn2[C@@H]1O[C@H](COP(=O)(O)OP(=O)(O)OP(=O)(O)O)[C@@H](O)[C@H]1O
As to the kind of experiment: GAPDH-coupled NADH oxidation. The settings on record: reverse, 3-PG 4 mM, 0.3 mM NADH, 10 mM MgCl2, 50 mM phosphate pH 7.0, 15 mM cysteine, 37 °C. Type of data set: biochemical, Ruminiclostridium cellulolyticum.

Take `O=P(O)(O)OC[C@H]1OC(O)(COP(=O)(O)O)[C@@H](O)[C@@H]1O` (stereo partly shown) [FBP]: the “activation of PK, HPLC-RI of pyruvate” value in data set [1] is recorded as “FBP was found to act as a potent allosteric activator only when GDP is the co-substrate”.

B1: E. coli glucokinase (GLK) (Escherichia coli K-12) (protein)
chain: MTKYALVGDVGGTNARLALCDIASGEISQAKTYSGLDYPSLEAVIRVYLEEHKVEVKDGCIAIACPITGDWVAMTNHTWAFSIAEMKKNLGFSHLEIINDFTAVSMAIPMLKKEHLIQFGGAEPVEGKPIAVYGAGTGLGVAHLVHVDKRWVSLPGEGGHVDFAPNSEEEAIILEILRAEIGHVSAERVLSGPGLVNLYRAIVKADNRLPENLKPKDITERALADSCTDCRRALSLFCVIMGRFGGNLALNLGTFGGVFIAGGIVPRFLEFFKASGFRAAFEDKGRFKEYVHDIPVYLIVHDNPGLLGSGAHLRQTLGHIL
notes: full-length, C-terminal His tag (pET22b+), E. coli BL21(DE3), Ni-NTA and anion exchange
Usually Km stands for the substrate concentration at which the rate is half of its maximum. As to B1, the Km in data set [2] was determined as 2470 ± 390 µM.

B2: Xylulokinase (XK) (Ruminiclostridium cellulolyticum H10) (protein)
chain: MSFLIGIDLGTSGVKTVLFDEAGKPVASSTVEYPLYQPNLGWAEQDPEEWWKGTCESINNVMLKSGVDKREVKGIGLSGQMHGAVLLDKDDKVLRNAIIWCDQRSAAECDEITDLIGRERLIEITANPALTGFTASKIMWVKNNEPQIFEKIAKILLPKDYIRFRLTGEYATEVSDASGMQLMNIAKREWSIEVLDKLGLSTSMLGKMYESQEVTGKVTSSAADQTGLNAGTIVVGGGGDQAAGAVGNGIVKSGIVSSTIGTSGVVFAYTDKLTIDPLGRVHTFCHAVPNTYHVMGVTQGAGLSLKWFRDNFCMEEMMTSELSDIDVYKLLDAEAETIKPCSDGLVYLPYLMGERTPHLDPNAKGVFFGLTAKHTKPHFIRSIMEGVTFSLRDCLEIIKGMGVDVSEVRASGGGGKSGIWRQMQADVFGTNINRIRSDEGPALGVAILAGVGAGIYDSVPQACEEVIKVKDTLAPVEDRIKKYDDFYKLYTKLYKSLKDDFNQLSTILK
notes: full-length, C-terminal His tag (pET28a), E. coli BL21(DE3), Ni-NTA and anion exchange
With B2, the Km in data set [3] amounted to 120 ± 20 µM; in data set [4], 1180 ± 180 µM; in data set [5], 300 ± 70 µM. Besides, the figures for the kcat in data set [3], in data set [4] and in data set [5] were 6540 ± 177 iu/µmol, 6653 ± 281 iu/µmol and 8788 ± 375 iu/µmol, respectively.

B3: Phosphoglycerate kinase (PGK) (Ruminiclostridium cellulolyticum H10) (protein)
chain: MSMMNKKTIEDIDVAGKRVIVRVDFNVPLDENRKITDDKRIVGALPTIKYLVDKGAKTILVSHLGRPKEGFEDKFSMKPTAVRLGELLGKEIIMAKDVVGEDAKSKAAALKDGEVLMLENVRFHKEETKNDANFAKELASMAEIFVNDAFGTAHRAHASTAGLADYLPAVCGFLIKKEIEFMGKALANPARPFVAILGGAKVSDKIAVIENLIDKVDTLIIGGGMAYTFLKAKGYHIGNSICEEDKIDLAKTLMEKAEAKGVEIMLPIGSMVAQEFKNDTEIKYVPSDAMPDGWMGMDIGSLTIENFAKEIKKAKTVIWNGPMGVFEFPNFATGTKEIAKAVAESGALSIVGGGDSAAAVEQLGFADKITHISTGGGASLEFLEGKELPGIAVLMDKNPRKVIAAGNWKMNKTASEAVEFVNALKPAVADAKNEVVVGVPFVCLPGVVAAAKGSNIKVAAQNMHWEEKGAFTGEVSGPMLADLGVDYVIIGHSERREYFGETNEMINKKAHAIFKYGMTPIICCGETLTQREQGVTADHIRYQIKVALLDLTAEQVSKLVIAYEPIWAIGTGKTATNEQANEVCTIIRELVAELYGSEVAEHVRIQYGGSVNAKNATELFAMSDIDGGLVGGASLKVEDFSIIAKA
notes: full-length, C-terminal His tag (pET28a), E. coli BL21(DE3), Ni-NTA, anion exchange, gel filtration
As to B3, the Km is 135 ± 8 µM in data set [6], 80 ± 2 µM in data set [7], 4660 ± 1240 µM in [8] and 480 ± 70 µM in data set [9]. Also, the kcat in [6] is recorded as 771 ± 20 iu/µmol; in data set [7] it was 733 ± 12 iu/µmol; in data set [8], 2831 ± 348 iu/µmol; in data set [9], “kcat = 4256 ± 148 iu/umol”.
